Experimental findings from patent publication US20250262210A1 (TRUSTEES OF COLUMBIA UNIVERSITY IN THE CITY OF NEW YORK, published 2025) are described below.

The assay concerns the target T1, SREBF2 (human, UniProt Q12772 1-1141, limits assumed).
T1 sequence (looked up): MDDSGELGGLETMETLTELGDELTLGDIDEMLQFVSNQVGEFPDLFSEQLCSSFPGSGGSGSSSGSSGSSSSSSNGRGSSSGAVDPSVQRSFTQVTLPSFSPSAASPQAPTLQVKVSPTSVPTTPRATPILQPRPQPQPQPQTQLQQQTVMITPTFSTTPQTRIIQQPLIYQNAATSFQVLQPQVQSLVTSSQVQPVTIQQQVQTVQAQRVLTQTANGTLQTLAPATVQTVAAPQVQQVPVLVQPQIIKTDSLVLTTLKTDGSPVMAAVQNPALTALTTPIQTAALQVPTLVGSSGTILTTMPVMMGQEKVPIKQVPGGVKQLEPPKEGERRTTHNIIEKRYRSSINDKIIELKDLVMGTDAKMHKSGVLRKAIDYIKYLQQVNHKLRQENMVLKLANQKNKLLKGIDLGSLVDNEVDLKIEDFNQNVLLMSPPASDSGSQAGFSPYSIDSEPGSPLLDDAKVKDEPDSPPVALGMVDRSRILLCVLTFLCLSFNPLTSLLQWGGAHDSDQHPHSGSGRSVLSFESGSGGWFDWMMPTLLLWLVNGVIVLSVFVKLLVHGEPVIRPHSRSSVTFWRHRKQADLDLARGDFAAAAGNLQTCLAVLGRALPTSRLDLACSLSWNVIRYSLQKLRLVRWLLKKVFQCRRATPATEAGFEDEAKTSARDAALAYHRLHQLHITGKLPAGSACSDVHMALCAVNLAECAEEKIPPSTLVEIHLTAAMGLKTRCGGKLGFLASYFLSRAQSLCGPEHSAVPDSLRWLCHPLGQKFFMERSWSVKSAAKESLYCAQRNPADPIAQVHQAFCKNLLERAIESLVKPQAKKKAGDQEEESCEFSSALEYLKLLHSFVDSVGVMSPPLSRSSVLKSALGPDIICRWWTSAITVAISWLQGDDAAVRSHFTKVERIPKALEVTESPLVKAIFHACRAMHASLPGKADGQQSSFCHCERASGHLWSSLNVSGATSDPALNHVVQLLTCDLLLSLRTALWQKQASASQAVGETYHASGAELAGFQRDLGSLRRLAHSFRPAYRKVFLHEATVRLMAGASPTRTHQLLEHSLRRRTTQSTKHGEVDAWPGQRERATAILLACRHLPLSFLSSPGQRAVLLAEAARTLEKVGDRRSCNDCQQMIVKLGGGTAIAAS
Description: IP/MS, LZTR1 wild type-FLAG, U87. In a few lines: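 Gel slices were reduced with 5 mM DTT, alkylated with 11 mM IAA and digested overnight at 37° C. with trypsin. Peptides were analysed on an Orbitrap Fusion Tribrid by LC-MS/MS.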

B1: LZTR1-FLAG (other, human, UniProt Q8N653 1-840, looked up)
chain: MAGPGSTGGQIGAAALAGGARSKVAPSVDFDHSCSDSVEYLTLNFGPFETVHRWRRLPPCDEFVGARRSKHTVVAYKDAIYVFGGDNGKTMLNDLLRFDVKDCSWCRAFTTGTPPAPRYHHSAVVYGSSMFVFGGYTGDIYSNSNLKNKNDLFEYKFATGQWTEWKIEGRLPVARSAHGATVYSDKLWIFAGYDGNARLNDMWTIGLQDRELTCWEEVAQSGEIPPSCCNFPVAVCRDKMFVFSGQSGAKITNNLFQFEFKDKTWTRIPTEHLLRGSPPPPQRRYGHTMVAFDRHLYVFGGAADNTLPNELHCYDVDFQTWEVVQPSSDSEVGGAEVPERACASEEVPTLTYEERVGFKKSRDVFGLDFGTTSAKQPTQPASELPSGRLFHAAAVISDAMYIFGGTVDNNIRSGEMYRFQFSCYPKCTLHEDYGRLWESRQFCDVEFVLGEKEECVQGHVAIVTARSRWLRRKITQARERLAQKLEQEAAPVPREAPGVAAGGARPPLLHVAIREAEARPFEVLMQFLYTDKIKYPRKGHVEDVLLIMDVYKLALSFQLCRLEQLCRQYIEASVDLQNVLVVCESAARLQLSQLKEHCLNFVVKESHFNQVIMMKEFERLSSPLIVEIVRRKQQPPPRTPLDQPVDIGTSLIQDMKAYLEGAGAEFCDITLLLDGHPRPAHKAILAARSSYFEAMFRSFMPEDGQVNISIGEMVPSRQAFESMLRYIYYGEVNMPPEDSLYLFAAPYYYGFYNNRLQAYCKQNLEMNVTVQNVLQILEAADKTQALDMKRHCLHIIVHQFTKVSKLPTLRSLSQQLLLDIIDSLASHISDKQCAELGADI
notes: Expressed in HEK 293T, HeLa or U87 cells; used as cell lysate; also called LZTR1 wild type-FLAG; LZTR1 WT; not shown: FLAG tag at the C-terminus
With B1, the binding result is given as “binds”.
